# In the DeepSol protein solubility set:
# Test: soluble on expression in E. coli; label from the status in PepcDB or PDB records
row,Sequence,soluble on expression in E. coli
1,MSSLTKQFVITQSVKNVSSIADGGEHVTPSEIHYGTEWYMRIKRDNGFMSFGLYCPMTGKTTNWSIVADIRVELMPLTGMWKSVECECKIAKSPSLISEVLRSTIMPWGRMMTNYVVDDALMIEVFVTIKSMTGFERPYNLRSFDESMEEFSDVVLLVGEKKFYVLRKYLAAQSKYFKALLLGSFEEGKSSEVTLTSIDPNDFQFFLEVLYGDSAINDLTVEGILHIADMYDTPMVVRKCEEFLIKGTKLPAKKKLQMAFRYKMENFMVLFFGNIQRKVFNFFRETTTLN,not soluble
2,MSSLWLDQARGSEPACPALQGATRADVCIVGGGYTGLWTALQLREQSPGLDIVLLEAQECGAGASGRNGGFMLSWAAKFETLLKVCGTDEALRLLGESERIAADVAGYLKRHGVDAQLRQDGWLWTASNAAQVDSWMPCIELLARHGQQAFVALPADEVRRLSGSAAHLAGVLSRSSATVHPGMYVRGLRRIALAKGIRIYEHTPMRSLRARPQPTVATARGEVRAAKVVLAMNAWSTRFRELNKGVVVVGSDLVATAPHPEALEKIGLTSGVAISDSRLFTNYYRNTCAGEMVFGRGGGDFAFNGAVGRLYEGPSRFAREVAAILHRFYPALAPLGIVRSWSGPIDRSMDGLPCFGHLGGHPDIVYGYGYSGNGVGPTYLGGKFLASMVLENDDAWRHSALARGLRGRFPPEPFRYVGSRVVKAALVRKEAAEDQGQAPARLDTMLAGLAPGGLVPVARKEKALEHHHHHH,not soluble
3,MSSMTTTDNKAFLNELARLVGSSHLLTDPAKTARYRKGFRSGQGDALAVVFPGSLLELWRVLKACVTADKIILMQAANTGLTEGSTPNGNDYDRDVVIISTLRLDKLHVLGKGEQVLAYPGTTLYSLEKALKPLGREPHSVIGSSCIGASVIGGICNNSGGSLVQRGPAYTEMSLFARINEDGKLTLVNHLGIDLGETPEQILSKLDDDRIKDDDVRHDGRHAHDYDYVHRVRDIEADTPARYNADPDRLFESSGCAGKLAVFAVRLDTFEAEKNQQVFYIGTNQPEVLTEIRRHILANFENLPVAGEYMHRDIYDIAEKYGKDTFLMIDKLGTDKMPFFFNLKGRTDAMLEKVKFFRPHFTDRAMQKFGHLFPSHLPPRMKNWRDKYEHHLLLKMAGDGVGEAKSWLVDYFKQAEGDFFVCTPEEGSKAFLHRFAAAGAAIRYQAVHSDEVEDILALDIALRRNDTEWYEHLPPEIDSQLVHKLYYGHFMCYVFHQDYIVKKGVDVHALKEQMLELLQQRGAQYPAEHNVGHLYKAPETLQKFYRENDPTNSMNPGIGKTSKRKNWQEVE,soluble
4,MSSNSPNSSNPAATDAPKKTSVEPGSEANNWHITEADEKGFKLTDMIKKLLKPVFSKAIMFDEKEIHVLLTRVFKYYTSPPNKKTAPSASASATTSMSPPKPAANALLELQAPINICGDTHGQYNDLLRIFNACGAATKTQYLFLGDYVDRGGHSLEVIMLLFSLKLAMPRKMHLLRGNHELKAINKNYGFHAELKKRFQREEVYESVYNHFNQVFSYMPLCAIVSKRILCMHGGISPHLKSLDDIRAIPLPLETAKTHPLACDLLWADPEKDAKGFEPNKIRAISNVFGKKEVDDLCKRLDIDLIVRAHQVVEYGYAFFADRRLITVFSASRYQIELCNYAAVVVVNKMLELSFVQLKPEDFEVRRDECEENAKDQTTSNVPH,not soluble
5,MSSNTTEHGEHFNESIVNEVILEDMKKNRIDHMKYLPGMETMEESDVMEQVITAMNAYDYDKYTEKDVRRALEHDNRTVEDFQALLSPAALPLLEEIAQAARVETRKHFGNSVYMFTPIYIANYCENYCIYCGFNCHNKIRRAQLNAEEIDKEMAAIAKTGLQEILILTGESRIKSDVKYIGEACKIARKYFKVIGLEVYPMNSDEYHYLHECGADYVTVFQETYNSDKYETLHLAGHKRIFPYRLNAQERALKGGMRGVGFAALLGLDDFRKDAFATGYHAWLLQRKYPHAEIAFSCPRLRPIINNDRINPMDVHEPQLLQVVCAYRLFMPFASITVSTRECERVRDNLVNIAATKISAGVSTGIGSHVEDIEDKGDDQFEISDGRSVDEVYQALLNHDLQPVMNDYVYL,not soluble
6,MSSPERDEGTPVPDSRGHCDADTVSGTPDRRPLLGEEKAVTGEGRAGIVGSPAPRDVEGLVPQIRVAAARQGESPPSVRGPAAAVFVTPKYVEKAQETRGAESQARDVKTEPGTVAAAAEKSEVATPGSEEVMEVEQKPAGEEMEMLEASGGVREAPEEAGPWHLGIDLRRNPLEAIQLELDTVNAQADRAFQHLEQKFGRMRRHYLERRNYIIQNIPGFWMTAFRNHPQLSAMIRGRDAEMLRYVTSLEVKELRHPKTGCKFKFFFRRNPYFRNKLIVKEYEVRSSGRVVSLSTPIIWRRGHEPQSFIRRNQDLICSFFTWFSDHSLPESDRIAEIIKEDLWPNPLQYYLCREGIRRPRRRPIREPVEIPRPFGFQSG,not soluble
7,MSSRPPFGIVKPSKPTGNPSSGSSDLDSTAEPSPHERRMDSQRASSGSDVHGHPSLGSQSHNLTSAQSEGRNAHKDLHERHVHPSQGYQRHGSKAPAHGHPSSQGARRSQHELSNFPKLLANLMQDTKATASASCASNQDTLQPTASTMSDGEPEEDKVKLCGNRLEVGVTDNLAGTQRRKEQQQLQGAQAKNDIIYTLSTDNSILDIDHQPKREIAFTHSLLNISKIVNRMIPIRCSMFPGKSWKDPNNLKRPSIAKVHRTNHANELRTARFKANEKCYLLSVCQLISLKNPTFQGLSDSLNSPGDKKVAAEKHTCEDRTRRPTFPLDAFCSTPNEQYETMLLIAKSRTLSARMNVKMLHFPLGLLALEFDGIDSDMPNPDFHDNVLGYRDPHTTTPDSSSDHAAANLPPGRTRDYIPRKAKAPYINYVHSLSVMVEPLPSPPECCHLGSAEPVRPNFADIGAWSGSPTNPQSPSA,not soluble
8,MSSRVPILKVDDYWVVAIEETLHDQSVIQFKEELLHNITGVAGKGLVIDISALEVVDSFVTRVLIEISRLAELLGLPFVLTGIKPAVAITLTEMGLDLRGMATALNLQKGLDKLKNLARMEQR,soluble
9,MSSTIPALPGPEPGPGPGPAGPVSLTERRKAETRMEIARAAARLFVGQGLRATRAEDIARAAGVAPRTFYRYFATKEEAVAPLYALGAERWVRAVREAPAELSPPEALERAVRHTLTPGAGVSAPSWEWARTLIRLAESSPALRKVWAEVCHSTERGLVQALAARMSGGDDNVAVRLAASPRLHFAAAVAGASVRVAAEHWASSSPQGARSPLEQALLNLEVLRGFAWEAGPAEEG,not soluble
10,MSSTLPVINLMGPTASGKTALACELYERGHFELISVDSALIYKDMDIGTAKPTKEELALYPHHLIDIITPLEVYSAAQFVEDATQLIDQIHMKGKTPILVGGTMLYFKSLLEGLSTNLPSADAEVRAAIEKQAEQEGWQSVYDELARVDPVAGARFKVSDRQRIIRAIEVYRLTGQPITKLQAEQPKNVPYRYTFHNYALLPDRIELHKRIEQRLFKMWSIGFLNEVESLIKKYDLNDNLPSMRSVGYRQALDFLLKSDMSHNNRREMEDKALFATRQLAKRQYTWLRSLQETHYFKTYLTIKQAQEDLRNSYGLEHHHHHH,soluble
11,MSSVGAGFRLARAGWVLVREGVIAALPGEELSGLPKFGWQLARLFTRRRALAYQRSDRLAKAVVRLGPSYVKLGQFLATRPDVVGNDMALDLAMLQDKMHTFPKAEAVAAIEASLGRKVRDLYAEFGLEHHHHHH,not soluble
12,MSSVVNAAYAEYNGKEKGDQEDPRVLIPQLCRLFYELGWVTGTGGGISLRHGEHIYIAPSGVQKERIQPEDLFVCDIDEKDISCPPPQKKLKKSQCTPPFMNAYTMRGAQAVIHTHSKSAVMATLLFPGKEFRITHQEMIKGIRKGNSGTNFRYDDTLVVPIIENTPEEKDLKERMARAMDMYPDSCAVLVRRHGVYVWGETWEKAKTMCECYDYLFDIAVQMKQSGLDPSAFPTEEKGIV,not soluble
13,MSSYKNILVAIDGSYESELAFEKGVSVALRNDANLLLTHVVDTRALQSVATFDAYIYEKLEQEAHSVLDDYENQARERGLEKVRQIIEFGNPKPLLATEIPEREHVDLIMLGATGLNAFERLLIGSSSEYILRHAKVDLLVVRDPEKTL,not soluble
14,MSTAYEVQCRGLPWEATEQELRDFFGNNGIESLEIPRRNGRTSGDAKVVFTNEEDYNNALKKDREHLGSRYIEVFPAGGAPTRRGDRGERGDRGDRDHYRSRGAPPRDRYSDRGGPRSSGPDSIVRLRGLPFSVTSRDISDFLAPLPIVRDGILLPDQQRARPGGEAYVCFETMESVQIAKQRHMKNIGHRYIEVFEATHRDLSRFAEENDLRVPRFGPPPFASAPQTAPRGAYDPYSQPTDPYRNATDYRRAAEPEDPYARSRAPSVQDYGVRASYDPYTQPAAPVSSYPSQQQPSAGYYDNYAPKTAYESYGRERGPDPRDVRDPRDSRMPDPRDSRALSDPYAAESRYSEYGYESREPYWRGGSGGPPSIGGGVGGGGAPLAPTGRDPYSVGESWANGAGGPGGPPPVSSDRDRYGSGGYASEPYAQREAGGAMRRSEYGRPDDRYSKPEPYGYSRDRDYGAPQNQHFVLRMRGVPFRASEADVYDFFHPIRPNQVELLRDHQFQRPSGDARVIFYNRKDYDDALMKDKQYMGERYIEMIPDNGRY,not soluble
15,MSTEKEKMIAGELYRSADETLSRDRLRARQLIHRYNHSLAEEHTLRQQILADLFGQVTEAYIEPTFRCDYGYNIFLGNNFFANFDCVMLDVCPIRIGDNCMLAPGVHIYTATHPIDPVARNSGAELGKPVTIGNNVWIGGRAVINPGVTIGDNVVVASGAVVTKDVPDNVVVGGNPARIIKKL,not soluble
16,MSTELIAAVEAADSAEGLVRAVAALSAARTDAAIPTLISVLAFNNPGAAVVAVDGLIQLGSPAAQAILNNLDDYNYGARAWALRALAGIGEPAALPLLLSAAREDFSLSVRRAATYGLGRVRWADLSESDRLAQQQQCYETLKLCLQYDPEWVVRYAAAAALETLAPAATQLQSAIAETLNRQAHSDEERAVQARSRLAERRLAGGVLEHHHHHH,soluble
17,MSTGATIVIDLGKTLSKVSLWDLDGRMLDRQVRPSIPLEIDGIRRLDAPDTGRWLLDVLSRYADHPVTTIVPVGHGAGIAALTDGRLAFPPLDYEQSIPEAVMADYRSQRDPFARTGSPALPDGLNIGSQLWWLDQLHPDVMANATLLPWAQYWAWFLTGRAVSEVTSLGCHSDLWDPQDGDFSPMAKRLGWAARFAPIVRAGDTVGALLPAIAERTGLSPDVQVLAGLHDSNAALLAARLEHHHHHH,not soluble
18,MSTGITYDEDRKTQLIAQYESVREVVNAEAKNVHVNENASKILLLVVSKLKPASDIQILYDHGVREFGENYVQELIEKAKLLPDDIKWHFIGGLQTNKCKDLAKVPNLYSVETIDSLKKAKKLNESRAKFQPDCNPILCNVQINTSHEDQKSGLNNEAEIFEVIDFFLSEECKYIKLNGLMTIGSWNVSHEDSKENRDFATLVEWKKKIDAKFGTSLKLSMGMSADFREAIRQGTAEVRIGTDIFGARPPKNEARII,soluble
19,MSTIELNKRQEHILQIVKENGPITGEHIAEKLNLTRATLRPDLAILTMSGFLEARPRVGYFYTGKTGTQLLADKLKKLQVKDFQSIPVVIHENVSVYDAICTMFLEDVGTLFVVDRDAVLVGVLSRKDLLRASIGQQELTSVPVHIIMTRMPNITVCRREDYVMDIAKHLIEKQIDALPVIKDTDKGFEVIGRVTKTNMTKILVSLSENEILAAAAAALEHHHHHH,soluble
20,MSTLADQALHNNNVGPIIRAGDLVEPVIETAEIDNPGKEITVEDRRAYVRIAAEGELILTRKTLEEQLGRPFNMQELEINLASFAGQIQADEDQIRFYFDKTM,soluble
21,MSTLLAILFLLPFYTFSLNKKPEEVLKGLYPSAEIEVEDIILTEEQVKEVEKLSGTKLNTRFVTFYIVKKDGKVLAYGYVDIHRVRTKPEAVLYVISPKGKIELIEVLAFHEPLEYLPPKNWLKLFEGKDINAPLRVKKDIPNVTGATLTARAITKNAKKVLALWQVLFGGKE,not soluble
